T1: RGS6/Gβ5 duplex (human, UniProt P49758 1-472; O14775-2 1-353)
T1 construct: RGS6 (regulator of G protein signaling 6), human; Gβ5 (GNB5), human, short form; Only GNB5 constructs with an N-terminal 6x HIS or TS tag are described; also called RGS6 duplex; source: Expi293 HEK cells, transfected, purified
T1 sequence (looked up) 1: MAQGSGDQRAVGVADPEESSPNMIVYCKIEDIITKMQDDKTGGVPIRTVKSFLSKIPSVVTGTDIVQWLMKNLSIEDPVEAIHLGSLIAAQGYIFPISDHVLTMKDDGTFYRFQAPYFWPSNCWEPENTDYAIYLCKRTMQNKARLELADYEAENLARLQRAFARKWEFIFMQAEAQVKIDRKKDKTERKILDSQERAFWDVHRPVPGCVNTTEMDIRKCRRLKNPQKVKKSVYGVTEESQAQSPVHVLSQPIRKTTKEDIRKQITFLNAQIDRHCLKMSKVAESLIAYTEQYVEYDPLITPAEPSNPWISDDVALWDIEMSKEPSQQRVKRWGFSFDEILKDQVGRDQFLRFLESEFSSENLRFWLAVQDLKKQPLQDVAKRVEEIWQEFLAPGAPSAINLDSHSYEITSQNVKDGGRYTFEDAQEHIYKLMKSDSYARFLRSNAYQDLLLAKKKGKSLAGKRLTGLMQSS
T1 sequence (looked up) 2: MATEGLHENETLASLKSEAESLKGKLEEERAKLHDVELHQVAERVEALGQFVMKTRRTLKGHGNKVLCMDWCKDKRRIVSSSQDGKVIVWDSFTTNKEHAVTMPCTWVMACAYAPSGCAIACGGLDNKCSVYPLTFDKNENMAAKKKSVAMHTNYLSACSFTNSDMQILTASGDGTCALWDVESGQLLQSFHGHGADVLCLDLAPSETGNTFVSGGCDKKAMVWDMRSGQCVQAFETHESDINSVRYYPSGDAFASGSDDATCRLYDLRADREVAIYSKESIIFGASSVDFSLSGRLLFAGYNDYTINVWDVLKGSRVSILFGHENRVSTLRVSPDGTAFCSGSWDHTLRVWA

T2: RGS7/Gβ5 duplex (human, UniProt P49802 1-495; O14775-2 1-353)
T2 construct: RGS7 (regulator of G protein signaling 7), human; cDNA in pCMV3 vector from Sino Biological; holds the loop RGS7-LP21 at aa230–250; Gβ5 (GNB5), human, short form; also called RGS7 duplex; RGS7/HIS-Gβ5; source: Expi293 HEK cells, transfected, purified; not shown: 6x HIS (named on the purified RGS7/HIS-Gβ5 of the Western blot)
T2 sequence (looked up) 1: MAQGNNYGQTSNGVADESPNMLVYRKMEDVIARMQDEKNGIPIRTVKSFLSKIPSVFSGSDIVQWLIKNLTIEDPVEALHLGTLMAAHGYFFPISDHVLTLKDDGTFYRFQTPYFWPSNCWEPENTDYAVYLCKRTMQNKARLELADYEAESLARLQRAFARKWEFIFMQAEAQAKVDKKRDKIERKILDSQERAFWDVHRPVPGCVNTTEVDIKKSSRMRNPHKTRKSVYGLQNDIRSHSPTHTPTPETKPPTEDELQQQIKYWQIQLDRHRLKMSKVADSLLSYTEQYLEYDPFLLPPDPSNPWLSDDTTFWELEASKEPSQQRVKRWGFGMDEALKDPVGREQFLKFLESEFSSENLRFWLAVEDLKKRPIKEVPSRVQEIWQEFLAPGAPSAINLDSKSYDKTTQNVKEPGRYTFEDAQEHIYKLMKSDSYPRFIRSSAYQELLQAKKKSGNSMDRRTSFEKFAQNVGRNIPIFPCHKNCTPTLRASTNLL
T2 sequence (looked up) 2: T1 sequence (looked up) 2

T3: RGS9/Gβ5 duplex (human, UniProt O75916 1-674; O14775-2 1-353)
T3 construct: RGS9-2 (regulator of G protein signaling 9, splice form 2), human; cDNA in pCMV3 vector from Sino Biological; Gβ5 (GNB5), human, short form; also called RGS9 duplex; RGS9-2/Gβ5; source: Expi293 HEK cells, transfected, purified
T3 sequence (looked up) 1: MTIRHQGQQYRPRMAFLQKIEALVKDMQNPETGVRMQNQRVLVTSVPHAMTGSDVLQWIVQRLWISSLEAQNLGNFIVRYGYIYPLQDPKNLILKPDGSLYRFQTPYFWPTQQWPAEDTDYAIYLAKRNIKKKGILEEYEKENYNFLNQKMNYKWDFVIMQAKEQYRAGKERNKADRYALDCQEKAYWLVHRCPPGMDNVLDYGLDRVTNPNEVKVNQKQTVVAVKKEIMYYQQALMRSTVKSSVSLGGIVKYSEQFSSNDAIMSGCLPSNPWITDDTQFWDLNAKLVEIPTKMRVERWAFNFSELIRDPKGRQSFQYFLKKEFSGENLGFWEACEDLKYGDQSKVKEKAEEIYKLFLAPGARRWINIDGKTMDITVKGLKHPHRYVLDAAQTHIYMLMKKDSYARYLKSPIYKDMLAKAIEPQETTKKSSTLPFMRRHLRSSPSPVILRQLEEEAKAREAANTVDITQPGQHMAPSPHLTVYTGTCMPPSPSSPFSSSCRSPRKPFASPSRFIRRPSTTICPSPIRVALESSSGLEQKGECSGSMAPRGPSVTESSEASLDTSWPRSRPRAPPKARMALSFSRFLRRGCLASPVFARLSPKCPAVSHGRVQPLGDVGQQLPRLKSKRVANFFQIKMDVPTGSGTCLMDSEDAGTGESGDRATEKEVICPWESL
T3 sequence (looked up) 2: T1 sequence (looked up) 2

B1: R7BP-FL (full-length R7BP; construct R7BP-TEV-TS) (natural protein, human, UniProt Q6MZT1 1-257, looked up)
chain: MSSAPNGRKKRPSRSTRSSIFQISKPPLQSGDWERRGSGSESAHKTQRALDDCKMLVQEFNTQVALYRELVISIGDVSVSCPSLRAEMHKTRTKGCEMARQAHQKLAAISGPEDGEIHPEICRLYIQLQCCLEMYTTEMLKSICLLGSLQFHRKGKEPGGGTKSLDCKIEESAETPALEDSSSSPVDSQQHSWQVSTDIENTERDMREMKNLLSKLRETMPLPLKNQDDSSLLNLTPYPLVRRRKRRFFGLSSLISS
notes: last residue 257 by the printed aa223–257; palmitoylation site removed; also called RGS7BP; source: Expi293 HEK cells, transfected, purified (StrepTrap HP; SEC if needed); not shown: Twin-Strep (after a TEV protease site), C-terminal, kept
B2: R7BPΔC (domain or fragment, human, UniProt Q6MZT1 1-222, looked up)
chain: MSSAPNGRKKRPSRSTRSSIFQISKPPLQSGDWERRGSGSESAHKTQRALDDCKMLVQEFNTQVALYRELVISIGDVSVSCPSLRAEMHKTRTKGCEMARQAHQKLAAISGPEDGEIHPEICRLYIQLQCCLEMYTTEMLKSICLLGSLQFHRKGKEPGGGTKSLDCKIEESAETPALEDSSSSPVDSQQHSWQVSTDIENTERDMREMKNLLSKLRETMPL
notes: R7BP (RGS7BP), human, C-terminus aa223–257 removed (the mutated cysteines 252 and 253 lie in the removed stretch); Its tag is surmised from its use as SPR ligand; also called R7BP with the C-terminus (aa223–257) removed; source: Expi293 HEK cells, transfected, purified
B3: R7BPΔN (domain or fragment, human, UniProt Q6MZT1 22-257, looked up)
chain: QISKPPLQSGDWERRGSGSESAHKTQRALDDCKMLVQEFNTQVALYRELVISIGDVSVSCPSLRAEMHKTRTKGCEMARQAHQKLAAISGPEDGEIHPEICRLYIQLQCCLEMYTTEMLKSICLLGSLQFHRKGKEPGGGTKSLDCKIEESAETPALEDSSSSPVDSQQHSWQVSTDIENTERDMREMKNLLSKLRETMPLPLKNQDDSSLLNLTPYPLVRRRKRRFFGLSSLISS
notes: R7BP (RGS7BP), human, lacking the N-terminal 21 amino acids (R7BP-N21); C252S, C253S are stated for all R7BP constructs; Its tag is surmised from its use as SPR ligand; also called truncated R7BP derivative lacking the N-terminal 21 amino acids; source: Expi293 HEK cells, transfected, purified

Experiments:
Assay in all cases: SPR; OpenSPR (Nicoya), Streptavidin sensor chip; tagged R7BP variant as ligand, purified R7-RGS/Gβ5 duplex as analyte at 3–5 concentrations; PBS pH 7.4, 0.005% Tween20; 25 µL per minute; 1:1-binding model; two independent experiments
Conditions in all cases: both partners purified
RGS6/Gβ5 duplex = biological target: T1, RGS6/Gβ5 duplex
RGS7/Gβ5 duplex = biological target: T2, RGS7/Gβ5 duplex
RGS9/Gβ5 duplex = biological target: T3, RGS9/Gβ5 duplex
RGS11/Gβ5 duplex = biological target: T4, RGS11/Gβ5 duplex (human, UniProt O94810 1-467; O14775-2 1-353)
T4 construct: RGS11 (regulator of G protein signaling 11), human; Gβ5 (GNB5), human, short form; also called RGS11 duplex; source: Expi293 HEK cells, transfected, purified
T4 sequence (O94810 whole entry, one chain of several): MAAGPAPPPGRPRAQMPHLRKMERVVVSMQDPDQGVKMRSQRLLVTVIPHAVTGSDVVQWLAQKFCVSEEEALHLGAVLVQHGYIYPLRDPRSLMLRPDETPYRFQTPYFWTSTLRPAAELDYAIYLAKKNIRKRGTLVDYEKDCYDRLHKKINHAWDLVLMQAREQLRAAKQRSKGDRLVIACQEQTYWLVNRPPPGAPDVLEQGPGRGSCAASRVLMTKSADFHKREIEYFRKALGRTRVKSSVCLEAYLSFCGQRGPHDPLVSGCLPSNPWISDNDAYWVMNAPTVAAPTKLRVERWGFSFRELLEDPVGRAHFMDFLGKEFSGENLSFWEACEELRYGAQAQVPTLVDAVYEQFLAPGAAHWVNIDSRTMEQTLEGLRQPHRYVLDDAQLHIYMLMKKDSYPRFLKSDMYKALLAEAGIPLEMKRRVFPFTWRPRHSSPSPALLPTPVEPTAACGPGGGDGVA

| Binder | Kd (RGS6/Gβ5 duplex) [nM] | Kd (RGS7/Gβ5 duplex) [nM] | Kd (RGS9/Gβ5 duplex) [nM] | Kd (RGS11/Gβ5 duplex) [nM] |
| --- | --- | --- | --- | --- |
| B1 | 2.3 | 19 | 1.5 | 2.3 |
| B2 |  | 9.9 |  |  |
| B3 |  | 1.8 |  |  |
